Experimental findings from PMC3003441 (Nature cell biology, 2010) are described below.

This experiment addresses N-terminally flag-tagged Ubr1 (^fUbr1), full length (S. cerevisiae, UniProt P19812 1-1950). The experiment is described as follows: co-IP.

Chain of N-terminally flag-tagged Ubr1 (^fUbr1), full length (P19812 whole entry): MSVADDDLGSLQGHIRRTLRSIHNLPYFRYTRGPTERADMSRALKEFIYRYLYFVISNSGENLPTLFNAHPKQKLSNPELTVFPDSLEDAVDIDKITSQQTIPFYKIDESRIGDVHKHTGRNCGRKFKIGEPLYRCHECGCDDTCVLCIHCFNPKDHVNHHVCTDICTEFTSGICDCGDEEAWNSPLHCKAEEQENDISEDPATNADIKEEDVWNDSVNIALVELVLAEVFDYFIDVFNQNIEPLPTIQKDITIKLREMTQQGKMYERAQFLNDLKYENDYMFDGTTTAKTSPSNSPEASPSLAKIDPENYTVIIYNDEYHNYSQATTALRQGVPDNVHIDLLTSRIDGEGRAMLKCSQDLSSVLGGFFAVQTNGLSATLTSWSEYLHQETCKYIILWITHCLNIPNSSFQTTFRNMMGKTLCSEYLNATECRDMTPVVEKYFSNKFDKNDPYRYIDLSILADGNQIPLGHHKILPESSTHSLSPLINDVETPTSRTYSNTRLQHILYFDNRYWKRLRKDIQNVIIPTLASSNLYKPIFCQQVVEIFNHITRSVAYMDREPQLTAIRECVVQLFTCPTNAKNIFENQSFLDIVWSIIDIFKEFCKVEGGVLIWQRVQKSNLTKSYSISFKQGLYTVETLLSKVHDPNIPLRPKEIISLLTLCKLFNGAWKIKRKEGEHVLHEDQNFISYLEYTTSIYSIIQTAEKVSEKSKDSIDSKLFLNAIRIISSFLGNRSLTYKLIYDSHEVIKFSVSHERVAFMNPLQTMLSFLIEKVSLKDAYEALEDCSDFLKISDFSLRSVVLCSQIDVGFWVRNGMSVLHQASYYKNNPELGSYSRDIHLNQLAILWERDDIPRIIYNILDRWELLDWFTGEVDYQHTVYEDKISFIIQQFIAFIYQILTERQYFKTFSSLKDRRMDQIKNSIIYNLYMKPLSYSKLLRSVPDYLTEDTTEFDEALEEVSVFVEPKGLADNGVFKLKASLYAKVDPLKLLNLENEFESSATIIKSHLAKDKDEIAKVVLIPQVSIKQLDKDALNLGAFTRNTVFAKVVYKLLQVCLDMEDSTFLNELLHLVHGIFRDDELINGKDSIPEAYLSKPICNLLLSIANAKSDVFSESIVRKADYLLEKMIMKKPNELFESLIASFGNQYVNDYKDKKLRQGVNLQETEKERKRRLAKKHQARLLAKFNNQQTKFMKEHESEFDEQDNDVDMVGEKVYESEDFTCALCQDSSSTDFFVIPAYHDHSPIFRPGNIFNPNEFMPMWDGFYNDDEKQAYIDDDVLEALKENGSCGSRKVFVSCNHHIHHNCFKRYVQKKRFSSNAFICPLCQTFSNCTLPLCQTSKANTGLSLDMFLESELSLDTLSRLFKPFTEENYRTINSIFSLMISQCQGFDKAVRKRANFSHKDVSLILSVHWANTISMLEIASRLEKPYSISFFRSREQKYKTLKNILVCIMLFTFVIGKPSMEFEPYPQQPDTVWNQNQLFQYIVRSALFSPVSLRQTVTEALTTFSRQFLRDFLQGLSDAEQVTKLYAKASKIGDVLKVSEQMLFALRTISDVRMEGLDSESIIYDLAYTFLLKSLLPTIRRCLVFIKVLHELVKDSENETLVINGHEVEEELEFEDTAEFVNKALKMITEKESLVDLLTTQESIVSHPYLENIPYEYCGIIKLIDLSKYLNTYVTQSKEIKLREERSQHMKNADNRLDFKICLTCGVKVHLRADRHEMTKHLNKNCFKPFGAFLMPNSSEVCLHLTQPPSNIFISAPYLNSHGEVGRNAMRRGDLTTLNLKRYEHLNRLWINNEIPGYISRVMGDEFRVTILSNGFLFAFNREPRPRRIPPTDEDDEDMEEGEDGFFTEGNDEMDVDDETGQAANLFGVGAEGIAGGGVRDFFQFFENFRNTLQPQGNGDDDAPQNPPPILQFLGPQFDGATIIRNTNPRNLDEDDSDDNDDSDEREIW

B1: flag-tagged Ufd4 (^fUfd4), purified (enzyme, S. cerevisiae, UniProt P33202 1-1483, looked up)
chain: MSENNSHNLDEHESHSENSDYMMDTQVEDDYDEDGHVQGEYSYYPDEDEDEHMLSSVGSFEADDGEDDDNDYHHEDDSGLLYGYHRTQNGSDEDRNEEEDGLERSHDNNEFGSNPLHLPDILETFAQRLEQRRQTSEGLGQHPVGRTLPEILSMIGGRMERSAESSARNERISKLIENTGNASEDPYIAMESLKELSENILMMNQMVVDRIIPMETLIGNIAAILSDKILREELELQMQACRCMYNLFEVCPESISIAVDEHVIPILQGKLVEISYIDLAEQVLETVEYISRVHGRDILKTGQLSIYVQFFDFLTIHAQRKAIAIVSNACSSIRTDDFKTIVEVLPTLKPIFSNATDQPILTRLVNAMYGICGALHGVDKFETLFSLDLIERIVQLVSIQDTPLENKLKCLDILTVLAMSSDVLSRELREKTDIVDMATRSFQHYSKSPNAGLHETLIYVPNSLLISISRFIVVLFPPEDERILSADKYTGNSDRGVISNQEKFDSLVQCLIPILVEIYTNAADFDVRRYVLIALLRVVSCINNSTAKAINDQLIKLIGSILAQKETASNANGTYSSEAGTLLVGGLSLLDLICKKFSELFFPSIKREGIFDLVKDLSVDFNNIDLKEDGNENISLSDEEGDLHSSIEECDEGDEEYDYEFTDMEIPDSVKPKKISIHIFRTLSLAYIKNKGVNLVNRVLSQMNVEQEAITEELHQIEGVVSILENPSTPDKTEEDWKGIWSVLKKCIFHEDFDVSGFEFTSTGLASSITKRITSSTVSHFILAKSFLEVFEDCIDRFLEILQSALTRLENFSIVDCGLHDGGGVSSLAKEIKIKLVYDGDASKDNIGTDLSSTIVSVHCIASFTSLNEFLRHRMVRMRFLNSLIPNLTSSSTEADREEEENCLDHMRKKNFDFFYDNEKVDMESTVFGVIFNTFVRRNRDLKTLWDDTHTIKFCKSLEGNNRESEAAEEANEGKKLRDFYKKREFAQVDTGSSADILTLLDFLHSCGVKSDSFINSKLSAKLARQLDEPLVVASGALPDWSLFLTRRFPFLFPFDTRMLFLQCTSFGYGRLIQLWKNKSKGSKDLRNDEALQQLGRITRRKLRISRKTIFATGLKILSKYGSSPDVLEIEYQEEAGTGLGPTLEFYSVVSKYFARKSLNMWRCNSYSYRSEMDVDTTDDYITTLLFPEPLNPFSNNEKVIELFGYLGTFVARSLLDNRILDFRFSKVFFELLHRMSTPNVTTVPSDVETCLLMIELVDPLLAKSLKYIVANKDDNMTLESLSLTFTVPGNDDIELIPGGCNKSLNSSNVEEYIHGVIDQILGKGIEKQLKAFIEGFSKVFSYERMLILFPDELVDIFGRVEEDWSMATLYTNLNAEHGYTMDSSIIHDFISIISAFGKHERRLFLQFLTGSPKLPIGGFKSLNPKFTVVLKHAEDGLTADEYLPSVMTCANYLKLPKYTSKDIMRSRLCQAIEEGAGAFLLS
As to B1, the binding result is “binds”.
